Experimental data: article PMC10027685, “Frozen fresh blood plasma preserves the functionality of native human α2-macroglobulin” (Scientific Reports, 2023)

Molecular target: the molecule itself
Experiment: SEC-MALS; Superose 6 10/300 Increase column, buffer C (20 mM Tris–HCl, 150 mM sodium chloride, pH 7.4), 25 °C; native and MA-treated hα2M from FR and NF plasma

B1: native human α2-macroglobulin (natural protein, UniProt P01023 24-1474, looked up)
chain: SVSGKPQYMVLVPSLLHTETTEKGCVLLSYLNETVTVSASLESVRGNRSLFTDLEAENDVLHCVAFAVPKSSSNEEVMFLTVQVKGPTQEFKKRTTVMVKNEDSLVFVQTDKSIYKPGQTVKFRVVSMDENFHPLNELIPLVYIQDPKGNRIAQWQSFQLEGGLKQFSFPLSSEPFQGSYKVVVQKKSGGRTEHPFTVEEFVLPKFEVQVTVPKIITILEEEMNVSVCGLYTYGKPVPGHVTVSICRKYSDASDCHGEDSQAFCEKFSGQLNSHGCFYQQVKTKVFQLKRKEYEMKLHTEAQIQEEGTVVELTGRQSSEITRTITKLSFVKVDSHFRQGIPFFGQVRLVDGKGVPIPNKVIFIRGNEANYYSNATTDEHGLVQFSINTTNVMGTSLTVRVNYKDRSPCYGYQWVSEEHEEAHHTAYLVFSPSKSFVHLEPMSHELPCGHTQTVQAHYILNGGTLLGLKKLSFYYLIMAKGGIVRTGTHGLLVKQEDMKGHFSISIPVKSDIAPVARLLIYAVLPTGDVIGDSAKYDVENCLANKVDLSFSPSQSLPASHAHLRVTAAPQSVCALRAVDQSVLLMKPDAELSASSVYNLLPEKDLTGFPGPLNDQDNEDCINRHNVYINGITYTPVSSTNEKDMYSFLEDMGLKAFTNSKIRKPKMCPQLQQYEMHGPEGLRVGFYESDVMGRGHARLVHVEEPHTETVRKYFPETWIWDLVVVNSAGVAEVGVTVPDTITEWKAGAFCLSEDAGLGISSTASLRAFQPFFVELTMPYSVIRGEAFTLKATVLNYLPKCIRVSVQLEASPAFLAVPVEKEQAPHCICANGRQTVSWAVTPKSLGNVNFTVSAEALESQELCGTEVPSVPEHGRKDTVIKPLLVEPEGLEKETTFNSLLCPSGGEVSEELSLKLPPNVVEESARASVSVLGDILGSAMQNTQNLLQMPYGCGEQNMVLFAPNIYVLDYLNETQQLTPEIKSKAIGYLNTGYQRQLNYKHYDGSYSTFGERYGRNQGNTWLTAFVLKTFAQARAYIFIDEAHITQALIWLSQRQKDNGCFRSSGSLLNNAIKGGVEDEVTLSAYITIALLEIPLTVTHPVVRNALFCLESAWKTAQEGDHGSHVYTKALLAYAFALAGNQDKRKEVLKSLNEEAVKKDNSVHWERPQKPKAPVGHFYEPQAPSAEVEMTSYVLLAYLTAQPAPTSEDLTSATNIVKWITKQQNAQGGFSSTQDTVVALHALSKYGAATFTRTGKAAQVTIQSSGTFSSKFQVDNNNRLLLQQVSLPELPGEYSMKVTGEGCVYLQTSLKYNILPEKEEFPFALGVQTLPQTCDEPKAHTSFQISLSVSYTGSRSASNMAIVDVKMVSGFIPLKPTVKMLERSNHVSRTEVSSNHVLIYLDKVSNQTLSLFFTVLQDVPVRDLKPAIVKVYDYYETDEFAIAEYNAPCSKDLGNA
modifications: β-cysteinyl-γ-glutamyl thioester bond C972–Q975; glycosylated
notes: human α2-macroglobulin, secreted glycosylated 1451-residue protein; homotetramer, a dimer of disulfide-linked dimers; Authentic protein from the plasma of anonymous healthy donors; also called hα2M; native hα2M
With B1 the “stoichiometry N” value was 4.
